target: CXC chemokine receptor 4 (CXCR4) on THP-1 cells (UniProt P61073); assay: cell-based or functional assay
Sequence (P61073 whole entry): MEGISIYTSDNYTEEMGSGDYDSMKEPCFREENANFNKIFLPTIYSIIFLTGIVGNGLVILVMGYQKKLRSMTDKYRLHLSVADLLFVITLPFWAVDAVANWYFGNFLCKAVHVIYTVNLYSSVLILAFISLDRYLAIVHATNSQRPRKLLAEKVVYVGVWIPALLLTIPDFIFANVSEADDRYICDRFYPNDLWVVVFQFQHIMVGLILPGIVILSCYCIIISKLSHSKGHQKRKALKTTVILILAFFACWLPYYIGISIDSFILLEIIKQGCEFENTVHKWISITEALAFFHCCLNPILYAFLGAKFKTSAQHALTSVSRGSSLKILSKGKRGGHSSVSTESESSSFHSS

Row | Substance | EC50 (nM), CXCR4 activation, Ca2+-flux in THP-1 cells [nM] | Fold Increase of EC50 over wild-type CXCL12-α [fold]
1 | CXCL12-α E63A (from UniProt P48061 22-93) (ligand) | 3.7 | 1
2 | CXCL12-α K64A (from UniProt P48061 22-93) (ligand) | 5 | 1.4
3 | CXCL12-α V49A (from UniProt P48061 22-93) (ligand) | 8.6 | 2.4
4 | CXCL12-α V39A (from UniProt P48061 22-93) (ligand) | 27.1 | 7.5
5 | CXCL12-α R47A (from UniProt P48061 22-93) (ligand) | 14.1 | 3.9
6 | CXCL12-α R47E (from UniProt P48061 22-93) (ligand) | 654 | 182
7 | CXCL12-α K27A (from UniProt P48061 22-93) (ligand) | 10.1 | 2.8
8 | CXCL12-α H25R (from UniProt P48061 22-93) (ligand) | 5.1 | 1.4
9 | CXCL12-α R20A (from UniProt P48061 22-93) (ligand) | 4.3 | 1.2
10 | CXCL12-α R41A (from UniProt P48061 22-93) (ligand) | 4.3 | 1.2
11 | CXCL12-α K27E (from UniProt P48061 22-93) (ligand) | 16.8 | 4.7
12 | CXCL12-α E60A (from UniProt P48061 22-93) (ligand) | 4.1 | 1.1

target: wild-type CXCL12-α (UniProt P48061); assay: method not given; reference is unsulfated p38

Row | Substance | fold tighter binding than the unsulfated peptide (p38) [fold]
13 | p38-sY3 (CXCR4 N-terminal peptide p38 with sulfotyrosine at positions 7, 12 and 21) | 20

target: wild-type CXCL12-α (UniProt P48061); assay: apparent Kd; method not given

Row | Substance | Kd [nM]
14 | p38-sY3 (CXCR4 N-terminal peptide p38 with sulfotyrosine at positions 7, 12 and 21) | 200

Source: US7923016
